Data reported in patent US20080119384A1 (Janssen / Centocor, published 2008).
Non-standard residues stand in square brackets, D forms with d. No end group written: not given here. MPEG = methoxypoly(ethylene glycol), ~20,000 Da; 2Nal = N[C@@H](Cc1ccc2ccccc2c1)C(=O)O; Sar = CNCC(=O)O

Target: T1, human TPO receptor, c-mpl (hTPOr) (human, UniProt P40238 26-635)
T1 sequence (looked up): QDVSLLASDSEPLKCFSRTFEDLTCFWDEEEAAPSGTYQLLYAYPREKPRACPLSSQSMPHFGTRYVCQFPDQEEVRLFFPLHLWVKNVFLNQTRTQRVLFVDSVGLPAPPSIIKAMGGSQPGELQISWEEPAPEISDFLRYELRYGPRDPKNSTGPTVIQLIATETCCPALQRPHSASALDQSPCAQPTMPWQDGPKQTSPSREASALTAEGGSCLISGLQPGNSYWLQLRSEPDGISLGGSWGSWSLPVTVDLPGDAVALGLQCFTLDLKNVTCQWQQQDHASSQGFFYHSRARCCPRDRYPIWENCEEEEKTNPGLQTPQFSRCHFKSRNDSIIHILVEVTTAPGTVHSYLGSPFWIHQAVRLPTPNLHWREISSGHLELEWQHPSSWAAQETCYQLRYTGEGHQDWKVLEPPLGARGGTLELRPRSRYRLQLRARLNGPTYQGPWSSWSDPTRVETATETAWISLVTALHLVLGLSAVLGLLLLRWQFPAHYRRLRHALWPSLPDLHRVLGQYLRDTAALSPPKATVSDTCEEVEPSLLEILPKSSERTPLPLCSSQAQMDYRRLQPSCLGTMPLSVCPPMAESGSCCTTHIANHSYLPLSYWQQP
Assay: cell-based or functional assay

B1: PEGylated TPO Compound No. 1 (peptide)
peptide: {MPEG}-IEGPTLRQ[2Nal]LAAR[Sar]K[Sar]RAAL[2Nal]QRLTPGEI
modifications: not fully specified (C-terminus); printed as (MPEG-Ile-Glu-Gly-Pro-Thr-Leu-Arg-Gln-(2-Nal)-Leu-Ala-Ala-Arg-(Sar))2-Lys-NH2; also: branched dimer: two 14-mers joined at their C-termini to Lys alpha and epsilon amines, residues 16-29 written C→N, Ile29 is the second N-terminus bearing MPEG, Lys C-terminal amide (lysinamide)
  EC50, luciferase reporter (fos promoter) in Baf/3 cells expressing human TPO-R: ~5 pM
